Our source for the Kd values is PMC13342644, “Structural basis for transport and inhibition of nucleotide sugar transport in pathogenic fungi” (Nature Communications, 2026).

Assay [1] concerns the target T1, Avi-tagged, biotinylated GDP-mannose transporter Vrg4 from Candida albicans (Candida albicans (SC5314 entry Q5A477), UniProt Q5A477).
T1 construct: also called biotinylated CaVrg4; source: S. cerevisiae strain BJ5460, purified as the untagged version, biotinylated using BirA ligase; not shown: Avi tag, C-terminal, kept
Description: ELISA. The conditions noted are these: both partners purified.

The target of assay [2] is GDP-mannose transporter Vrg4 from Candida albicans (Candida albicans, UniProt Q5A477).
Sequence of GDP-mannose transporter Vrg4 from Candida albicans (Q5A477 34-371): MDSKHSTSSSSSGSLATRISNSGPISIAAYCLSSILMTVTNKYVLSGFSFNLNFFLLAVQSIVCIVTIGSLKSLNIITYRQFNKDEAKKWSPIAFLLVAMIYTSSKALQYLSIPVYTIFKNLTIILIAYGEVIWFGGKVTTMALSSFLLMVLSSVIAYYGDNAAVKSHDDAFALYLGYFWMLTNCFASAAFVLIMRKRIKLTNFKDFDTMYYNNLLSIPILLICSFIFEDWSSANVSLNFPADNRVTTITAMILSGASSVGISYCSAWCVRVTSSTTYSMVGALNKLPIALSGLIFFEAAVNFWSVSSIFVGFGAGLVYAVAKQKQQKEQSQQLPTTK

T1 sequence (Q5A477 34-371, one chain of several): as the sequence (Q5A477 34-371) above

B1: nanobody NB4 (VHH)
VHH: QVQLVESGGGLVQAGGSLRLSCAASGRTFRSYTLGWFRQAPGKEREFVAAIKWSTDTTYYADSVKGRFTISGDNAKNTVYLQMNSLKPEDTAVYFCAARSLSTVIAGPEIPWPYNSWGQGTQVTVSS
notes: not shown: Myc, C-terminal, kept; His, C-terminal, kept
In general, Kd refers to a measure of binding affinity in units of concentration. Lower therefore signals higher affinity. B1 gave a Kd in assay [1] of approximately 10 nM.

B2: nanobody NB3 (VHH)
VHH: QVQLVESGGGLVQPGGSLRLSCAASGSISEINVMGWYRQAPGKQRELVARITTGGSTNYADSVKGRFTISRDNAKNTVYLQMNSLKPEDTAVYMCNAHRRVVMEWGPLGYDYWGQGTQVTVSS
notes: as for B1
In the case of B2, the equilibrium dissociation constant (Kd) in assay [1] is approximately 3 nM.

B3: NB2 (VHH)
VHH: QVQLVESGGGLVQPGGSLRLSCAASRIKRNIMSMGWYRQAPGKQRELVATLLRGGVTNYADSVKGRFTISRDNAKNTLYLQMNSLKPEDTAVYYCTLKEQMFDTTYWGQGTQVTVSS
B3 came in with a Kd in assay [2] of 125 nM.

B4: NB1 (VHH)
VHH: QVQLVESGGGLVQPGGSLRLSCAASGTSFTINVMAWYRQAPGKQRELVAGITSGGTTNYADAVKGRFAITSDNAKNTVYLQMNGLKSEDTAVYYCNAATTVPYPDYGFSLGTYDYEAWGQGTQVTVSS
In the case of B4, the dissociation constant (Kd) in assay [2] was 109 nM.
